According to patent US20070196354A1, “Method of treating diabetes by inhibiting degradation of at least one of crebl1, atf6, and hnf-4 alpha by htra” (priority 2003, published 2007):
Substitutions are numbered along the chain they refer to. In names and notes the source's numbering stands.

T1: ATF6 (SEQ ID NO: 18) with c-Myc-tag ligated at the N-terminal
T1 chain: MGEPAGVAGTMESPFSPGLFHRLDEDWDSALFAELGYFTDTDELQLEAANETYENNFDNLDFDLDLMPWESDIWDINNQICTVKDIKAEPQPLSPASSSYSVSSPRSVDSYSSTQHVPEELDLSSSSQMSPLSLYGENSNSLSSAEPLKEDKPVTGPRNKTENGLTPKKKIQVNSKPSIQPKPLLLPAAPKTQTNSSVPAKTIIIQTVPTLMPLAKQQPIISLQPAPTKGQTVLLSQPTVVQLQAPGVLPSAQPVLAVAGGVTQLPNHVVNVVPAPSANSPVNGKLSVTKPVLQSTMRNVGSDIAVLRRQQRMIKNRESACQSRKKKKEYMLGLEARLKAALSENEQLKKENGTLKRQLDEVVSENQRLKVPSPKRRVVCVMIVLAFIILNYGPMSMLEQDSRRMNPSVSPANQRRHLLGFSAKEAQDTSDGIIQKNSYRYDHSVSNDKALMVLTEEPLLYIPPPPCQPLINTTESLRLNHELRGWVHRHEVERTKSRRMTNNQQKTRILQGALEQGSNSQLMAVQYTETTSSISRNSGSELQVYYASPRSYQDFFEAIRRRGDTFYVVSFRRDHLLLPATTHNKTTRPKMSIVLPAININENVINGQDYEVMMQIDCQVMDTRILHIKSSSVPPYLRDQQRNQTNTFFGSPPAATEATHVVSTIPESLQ

T2: CREBL1 (SEQ ID NO: 16) with c-Myc-tag ligated at the N-terminal
T2 chain: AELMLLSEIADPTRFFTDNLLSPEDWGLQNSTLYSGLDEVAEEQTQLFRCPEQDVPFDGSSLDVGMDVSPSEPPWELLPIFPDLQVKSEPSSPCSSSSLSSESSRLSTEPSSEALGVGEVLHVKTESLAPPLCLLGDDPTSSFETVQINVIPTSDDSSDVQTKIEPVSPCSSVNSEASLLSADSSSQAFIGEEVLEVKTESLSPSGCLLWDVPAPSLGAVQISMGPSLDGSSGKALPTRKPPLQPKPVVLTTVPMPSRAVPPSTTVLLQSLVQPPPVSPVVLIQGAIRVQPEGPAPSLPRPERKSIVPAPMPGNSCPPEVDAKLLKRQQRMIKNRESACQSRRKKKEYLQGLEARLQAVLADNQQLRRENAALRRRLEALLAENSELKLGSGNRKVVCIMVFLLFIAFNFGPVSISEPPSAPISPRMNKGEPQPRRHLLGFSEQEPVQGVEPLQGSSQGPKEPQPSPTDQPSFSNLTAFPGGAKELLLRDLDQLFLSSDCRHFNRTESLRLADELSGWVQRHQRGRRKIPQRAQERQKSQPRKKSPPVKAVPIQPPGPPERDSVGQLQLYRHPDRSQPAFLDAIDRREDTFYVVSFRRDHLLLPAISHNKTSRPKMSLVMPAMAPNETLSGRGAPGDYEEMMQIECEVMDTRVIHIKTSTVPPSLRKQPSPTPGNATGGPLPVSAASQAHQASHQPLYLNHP

T3: HNF-4α (SEQ ID NO: 35) with N-terminal tag, as used in Example 6
T3 chain: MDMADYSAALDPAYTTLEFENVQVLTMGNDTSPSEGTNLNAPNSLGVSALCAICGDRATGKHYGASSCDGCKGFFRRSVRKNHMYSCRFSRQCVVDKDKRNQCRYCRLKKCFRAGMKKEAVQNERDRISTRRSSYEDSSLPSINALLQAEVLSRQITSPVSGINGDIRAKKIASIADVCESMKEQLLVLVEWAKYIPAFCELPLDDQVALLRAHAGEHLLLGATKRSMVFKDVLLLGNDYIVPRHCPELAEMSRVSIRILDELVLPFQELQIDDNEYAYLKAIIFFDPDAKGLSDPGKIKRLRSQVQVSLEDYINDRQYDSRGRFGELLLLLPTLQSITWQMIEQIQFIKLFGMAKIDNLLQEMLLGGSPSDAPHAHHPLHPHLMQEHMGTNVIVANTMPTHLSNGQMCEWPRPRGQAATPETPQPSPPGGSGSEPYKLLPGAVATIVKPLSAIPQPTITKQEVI

T4: biotinylated CREBL1 (N-terminal tagged-CREBL1 with biotinylated lysine residue within the protein)
T4 chain: T2 chain

B1: mature HtrA2 (SEQ ID NO: 4) with histidine (His)-tag ligated at the C-terminal (protein)
chain: MAVPSPPPASPRSQYNFIADVVEKTAPAVVYIEILDRHPFLGREVPISNGSGFVVAADGLIVTNAHVVADRRRVRVRLLSGDTYEAVVTAVDPVADIATLRIQTKEPLPTLPLGRSADVRQGEFVVAMGSPFALQNTITSGIVSSAQRPARDLGLPQTNVEYIQTDAAIDFGNSGGPLVNLDGEVIGVNTMKVTAGISFAIPSDRLREFLHRGEKKNSSSGISGSQRRYIGVMMLTLSPSILAELQLREPSFPDVQHGVLIHKVILGSPAHRAGLRPGDVILAIGEQMVQNAEDVYEAVRTQSQLAVQIRRGRETLTLYVTPEVTE
B2: mature HtrA2 (S306A) (SEQ ID NO: 6) with histidine (His)-tag ligated at the C-terminal (protein)
chain: B1 chain with S174A

Experiments:
[1] = target: T1, ATF6 (SEQ ID NO: 18) with c-Myc-tag …
[2] = target: T2, CREBL1 (SEQ ID NO: 16) with c-Myc-tag …
[3] = target: T3, HNF-4α (SEQ ID NO: 35) with N-terminal …
[4] = target: T4, biotinylated CREBL1 (N-terminal …)

Protein | in vitro protease assay; western blotting of ATF6 band [1] | in vitro protease assay; western blotting of CREBL1 band [2] | in vitro protease assay; western blotting of HNF-4α band [3] | in vitro protease assay; degradation pattern of biotinylated CREBL1 by western blotting (streptavidin HRP) [4]
B1 | the band of ATF6 was reduced significantly after the reaction of active HtrA2 with ATF6 for four hours (4 h) or overnight (O/N) | the band of CREBL1 was reduced significantly after the reaction of active HtrA2 with CREBL1 for overnight (O/N) | the band of HNF-4α was reduced significantly after the reaction of active HtrA2 with HNF-4α for overnight (O/N) | remarkable reduction of the band of biotinylated CREBL1 was observed, and further, the band that was supposed to be a degradation product of CREBL1 was detected around 50 kDa
B2 | the degradation of CREBL1 and ATF6 by inactive HtrA2 (mature HtrA2 (S306A)) was not observed | the degradation of CREBL1 and ATF6 by inactive HtrA2 (mature HtrA2 (S306A)) was not observed | the degradation of HNF-4α by inactive HtrA2 (mature HtrA2 (S306A)) was not observed | the degradation of CREBL1 by inactive HtrA2 (mature HtrA2 (S306A)) was not observed, and the band around 50 kDa as above was not detected
